Experimental data: patent publication US20120220489A1

Key:
[1] = target: Erk1-BSA 2.7x peptide-protein conjugate (human; bovine); experiment: RPA, normal assay
[2] = target: Histone H3 recombinant protein, human, Upstate 14-494 (human) (UniProt P68431); experiment: RPA, normal assay
[3] = target: Histone H3-BSA 2.7x peptide-protein conjugate (bovine); experiment: RPA, normal assay
[4] = target: pRb recombinant protein, human, Active Motif 31 128 (human) (UniProt P06400); experiment: RPA, normal assay
Chain of UniProt P06400 (P06400 whole entry): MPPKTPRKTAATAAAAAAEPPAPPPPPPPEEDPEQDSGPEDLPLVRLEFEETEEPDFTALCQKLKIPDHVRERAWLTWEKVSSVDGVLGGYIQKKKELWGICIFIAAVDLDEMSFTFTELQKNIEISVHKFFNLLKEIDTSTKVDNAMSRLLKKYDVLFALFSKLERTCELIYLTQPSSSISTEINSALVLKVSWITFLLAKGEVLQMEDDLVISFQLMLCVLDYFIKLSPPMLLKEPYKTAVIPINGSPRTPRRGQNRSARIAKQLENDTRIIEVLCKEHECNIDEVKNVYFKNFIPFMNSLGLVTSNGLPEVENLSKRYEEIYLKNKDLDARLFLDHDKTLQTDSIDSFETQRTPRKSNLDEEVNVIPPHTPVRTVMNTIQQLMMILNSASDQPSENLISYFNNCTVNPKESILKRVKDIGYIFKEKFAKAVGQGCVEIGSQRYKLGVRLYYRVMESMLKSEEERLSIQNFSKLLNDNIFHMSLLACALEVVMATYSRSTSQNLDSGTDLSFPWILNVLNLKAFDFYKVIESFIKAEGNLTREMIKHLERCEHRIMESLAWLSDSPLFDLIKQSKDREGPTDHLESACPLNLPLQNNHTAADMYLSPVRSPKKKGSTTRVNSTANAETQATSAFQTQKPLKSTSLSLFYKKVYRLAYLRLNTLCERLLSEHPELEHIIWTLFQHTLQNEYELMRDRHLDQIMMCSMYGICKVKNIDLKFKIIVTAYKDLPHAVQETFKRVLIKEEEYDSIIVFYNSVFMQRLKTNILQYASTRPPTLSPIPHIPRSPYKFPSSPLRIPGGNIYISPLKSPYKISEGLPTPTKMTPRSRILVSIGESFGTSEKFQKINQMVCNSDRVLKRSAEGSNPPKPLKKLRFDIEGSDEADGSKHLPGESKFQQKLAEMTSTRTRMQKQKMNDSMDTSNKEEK

[5] = target: pRb-BSA 1x peptide-protein conjugate (bovine); experiment: RPA, normal assay
Chain of pRb-BSA 1x peptide-protein conjugate (bovine) (P02769 25-607 limits assumed): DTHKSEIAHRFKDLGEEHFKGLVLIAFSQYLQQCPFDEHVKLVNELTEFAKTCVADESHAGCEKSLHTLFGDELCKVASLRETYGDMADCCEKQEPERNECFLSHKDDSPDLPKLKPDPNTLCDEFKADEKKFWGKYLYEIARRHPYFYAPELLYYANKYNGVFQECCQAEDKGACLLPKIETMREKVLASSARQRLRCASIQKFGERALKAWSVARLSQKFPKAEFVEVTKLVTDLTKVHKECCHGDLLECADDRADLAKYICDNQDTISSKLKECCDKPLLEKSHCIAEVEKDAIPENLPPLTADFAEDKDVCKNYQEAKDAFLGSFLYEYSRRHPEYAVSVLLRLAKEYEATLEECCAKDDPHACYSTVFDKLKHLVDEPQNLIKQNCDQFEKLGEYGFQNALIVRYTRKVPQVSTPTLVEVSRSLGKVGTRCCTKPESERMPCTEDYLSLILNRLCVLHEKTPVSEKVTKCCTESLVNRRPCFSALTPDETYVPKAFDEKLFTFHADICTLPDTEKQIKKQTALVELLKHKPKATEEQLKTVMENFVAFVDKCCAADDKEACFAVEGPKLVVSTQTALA

[6] = target: pRb recombinant protein, human, Active Motif 31 128 (human) (UniProt P06400); experiment: RPA standard curves
[7] = target: ERK1 (p42) active (phospho), human, Active Motif 31 152 (human) (UniProt P27361); experiment: RPA, competition: +free pRb peptide 10 nM
[8] = target: ERK1 (p44) active (GST tagged), human, Invitrogen PV 3311 (human) (UniProt P27361); experiment: RPA, competition: +free pRb peptide 10 nM
[9] = target: ERK1 (p44) inactive (GST tagged), human, Invitrogen PV 3312 (human) (UniProt P27361); experiment: RPA, competition: +free pRb peptide 10 nM
[10] = target: ERK1 (p44), human, Cell Signaling Technology 7416 (human) (UniProt P27361); experiment: RPA, competition: +free pRb peptide 10 nM
[11] = target: ERK2 (p42), human, Biosource PHO 0104 (human) (UniProt P28482); experiment: RPA, competition: +free pRb peptide 10 nM
Chain of UniProt P28482 (P28482 2-360 limits assumed): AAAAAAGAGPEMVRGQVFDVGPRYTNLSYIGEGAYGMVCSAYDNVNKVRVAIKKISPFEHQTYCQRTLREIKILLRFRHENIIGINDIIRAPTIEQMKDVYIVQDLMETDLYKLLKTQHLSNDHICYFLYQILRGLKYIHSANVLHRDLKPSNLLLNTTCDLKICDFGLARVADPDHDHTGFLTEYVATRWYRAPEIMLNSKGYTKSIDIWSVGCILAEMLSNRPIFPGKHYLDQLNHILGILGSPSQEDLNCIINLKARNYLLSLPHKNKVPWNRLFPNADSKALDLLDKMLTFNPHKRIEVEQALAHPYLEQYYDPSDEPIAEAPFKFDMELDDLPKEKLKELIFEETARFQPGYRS

[12] = target: Erk1-BSA 2.7x peptide-protein conjugate (human; bovine); experiment: RPA, competition: +free pRb peptide 10 nM
[13] = target: Histone H3 recombinant protein, calf, Roche 11 034 758 001 (calf) (UniProt P68432); experiment: RPA, competition: +free pRb peptide 10 nM
[14] = target: Histone H3 recombinant protein, human, Upstate 14-494 (human) (UniProt P68431); experiment: RPA, competition: +free pRb peptide 10 nM
[15] = target: Histone H3-BSA 2.7x peptide-protein conjugate (bovine); experiment: RPA, competition: +free pRb peptide 10 nM
[16] = target: pErk1/2-BSA 2.7x peptide-protein conjugate (human; bovine); experiment: RPA, competition: +free pRb peptide 10 nM
Chain of pErk1/2-BSA 2.7x peptide-protein conjugate (human; bovine) (P02769 25-607 limits assumed): as the sequence (P02769 25-607 limits assumed) above

[17] = target: pRb recombinant protein, human, Active Motif 31 128 (human) (UniProt P06400); experiment: RPA, competition: +free pRb peptide 10 nM
[18] = target: pRb-BSA 1x peptide-protein conjugate (bovine); experiment: RPA, competition: +free pRb peptide 10 nM
[19] = target: ERK1 (p42) active (phospho), human, Active Motif 31 152 (human) (UniProt P27361); experiment: RPA, competition: +free pRb peptide 100 nM
[20] = target: ERK1 (p44) active (GST tagged), human, Invitrogen PV 3311 (human) (UniProt P27361); experiment: RPA, competition: +free pRb peptide 100 nM
[21] = target: ERK1 (p44) inactive (GST tagged), human, Invitrogen PV 3312 (human) (UniProt P27361); experiment: RPA, competition: +free pRb peptide 100 nM
[22] = target: ERK1 (p44), human, Cell Signaling Technology 7416 (human) (UniProt P27361); experiment: RPA, competition: +free pRb peptide 100 nM
[23] = target: ERK2 (p42), human, Biosource PHO 0104 (human) (UniProt P28482); experiment: RPA, competition: +free pRb peptide 100 nM
[24] = target: Erk1-BSA 2.7x peptide-protein conjugate (human; bovine); experiment: RPA, competition: +free pRb peptide 100 nM
[25] = target: Histone H3 recombinant protein, calf, Roche 11 034 758 001 (calf) (UniProt P68432); experiment: RPA, competition: +free pRb peptide 100 nM
[26] = target: Histone H3 recombinant protein, human, Upstate 14-494 (human) (UniProt P68431); experiment: RPA, competition: +free pRb peptide 100 nM
[27] = target: Histone H3-BSA 2.7x peptide-protein conjugate (bovine); experiment: RPA, competition: +free pRb peptide 100 nM
[28] = target: pErk1/2-BSA 2.7x peptide-protein conjugate (human; bovine); experiment: RPA, competition: +free pRb peptide 100 nM
[29] = target: pRb recombinant protein, human, Active Motif 31 128 (human) (UniProt P06400); experiment: RPA, competition: +free pRb peptide 100 nM
[30] = target: pRb-BSA 1x peptide-protein conjugate (bovine); experiment: RPA, competition: +free pRb peptide 100 nM
[31] = target: ERK1 (p42) active (phospho), human, Active Motif 31 152 (human) (UniProt P27361); experiment: RPA, competition: +free pRb peptide 1000 nM
[32] = target: ERK1 (p44) active (GST tagged), human, Invitrogen PV 3311 (human) (UniProt P27361); experiment: RPA, competition: +free pRb peptide 1000 nM
[33] = target: ERK1 (p44) inactive (GST tagged), human, Invitrogen PV 3312 (human) (UniProt P27361); experiment: RPA, competition: +free pRb peptide 1000 nM
[34] = target: ERK1 (p44), human, Cell Signaling Technology 7416 (human) (UniProt P27361); experiment: RPA, competition: +free pRb peptide 1000 nM
[35] = target: ERK2 (p42), human, Biosource PHO 0104 (human) (UniProt P28482); experiment: RPA, competition: +free pRb peptide 1000 nM
[36] = target: Erk1-BSA 2.7x peptide-protein conjugate (human; bovine); experiment: RPA, competition: +free pRb peptide 1000 nM
[37] = target: Histone H3 recombinant protein, calf, Roche 11 034 758 001 (calf) (UniProt P68432); experiment: RPA, competition: +free pRb peptide 1000 nM
[38] = target: Histone H3 recombinant protein, human, Upstate 14-494 (human) (UniProt P68431); experiment: RPA, competition: +free pRb peptide 1000 nM
[39] = target: Histone H3-BSA 2.7x peptide-protein conjugate (bovine); experiment: RPA, competition: +free pRb peptide 1000 nM
[40] = target: pErk1/2-BSA 2.7x peptide-protein conjugate (human; bovine); experiment: RPA, competition: +free pRb peptide 1000 nM
[41] = target: pRb recombinant protein, human, Active Motif 31 128 (human) (UniProt P06400); experiment: RPA, competition: +free pRb peptide 1000 nM
[42] = target: pRb-BSA 1x peptide-protein conjugate (bovine); experiment: RPA, competition: +free pRb peptide 1000 nM
[43] = target: pRb recombinant protein, human, Active Motif 31 128 (human) (UniProt P06400); experiment: RPA standard curves, mean of duplicate assays
[44] = target: pRb-BSA 1x peptide-protein conjugate (bovine); experiment: RPA standard curves, mean of duplicate assays
[45] = target: pRb recombinant protein, human, Active Motif 31 128 (human) (UniProt P06400); experiment: RPA standard curve, assay 1, LOD back-calculated from one-site fit
[46] = target: pRb-BSA 1x peptide-protein conjugate (bovine); experiment: as above
[47] = target: pRb recombinant protein, human, Active Motif 31 128 (human) (UniProt P06400); experiment: RPA standard curve, assay 2, LOD back-calculated from one-site fit
[48] = target: pRb-BSA 1x peptide-protein conjugate (bovine); experiment: as above

Chain of Histone H3-BSA 2.7x peptide-protein conjugate (bovine) (P02769 25-607 limits assumed): as above
Chain of Erk1-BSA 2.7x peptide-protein conjugate (human; bovine) (peptide, as listed by the source limits assumed, chain 1 of 2): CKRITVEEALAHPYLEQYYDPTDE
Chain of Erk1-BSA 2.7x peptide-protein conjugate (human; bovine) (P02769 25-607 limits assumed, chain 2 of 2): as the sequence (P02769 25-607 limits assumed) above

## Rb phospho (pRb) Ser807/811 antibody, Cell Signaling Technology #9308
[1]
  maximum standard curve signal: 0.01 RFI
[2]
  maximum standard curve signal: 0.01 RFI
[3]
  maximum standard curve signal: 0.03 RFI
[4]
  maximum standard curve signal: 0.04 RFI
[5]
  maximum standard curve signal: 0.47 RFI
[6]
  signal intensity relative to the pRb-BSA peptide standard curves: 10%
[7]
  maximum standard curve signal: < 0.01 RFI
[8]
  maximum standard curve signal: < 0.01 RFI
[9]
  maximum standard curve signal: < 0.01 RFI
[10]
  maximum standard curve signal: < 0.01 RFI
[11]
  maximum standard curve signal: < 0.01 RFI
[12]
  maximum standard curve signal: < 0.01 RFI
[13]
  maximum standard curve signal: < 0.01 RFI
[14]
  maximum standard curve signal: < 0.01 RFI
[15]
  maximum standard curve signal: 0.02 RFI
[16]
  maximum standard curve signal: 0.01 RFI
[17]
  maximum standard curve signal: < 0.01 RFI
[18]
  maximum standard curve signal: 0.07 RFI
[19]
  maximum standard curve signal: < 0.01 RFI
[20]
  maximum standard curve signal: < 0.01 RFI
[21]
  maximum standard curve signal: < 0.01 RFI
[22]
  maximum standard curve signal: < 0.01 RFI
[23]
  maximum standard curve signal: < 0.01 RFI
[24]
  maximum standard curve signal: < 0.01 RFI
[25]
  maximum standard curve signal: < 0.01 RFI
[26]
  maximum standard curve signal: < 0.01 RFI
[27]
  maximum standard curve signal: 0.02 RFI
[28]
  maximum standard curve signal: < 0.01 RFI
[29]
  maximum standard curve signal: < 0.01 RFI
[30]
  maximum standard curve signal: < 0.01 RFI
[31]
  maximum standard curve signal: < 0.01 RFI
[32]
  maximum standard curve signal: < 0.01 RFI
[33]
  maximum standard curve signal: < 0.01 RFI
[34]
  maximum standard curve signal: < 0.01 RFI
[35]
  maximum standard curve signal: < 0.01 RFI
[36]
  maximum standard curve signal: < 0.01 RFI
[37]
  maximum standard curve signal: < 0.01 RFI
[38]
  maximum standard curve signal: < 0.01 RFI
[39]
  maximum standard curve signal: 0.01 RFI
[40]
  maximum standard curve signal: < 0.01 RFI
[41]
  maximum standard curve signal: < 0.01 RFI
[42]
  maximum standard curve signal: < 0.01 RFI
[43]
  mean LOD: 0.097 nM
[44]
  mean LOD: 0.025 nM
[45]
  LOD: 0.117 nM
[46]
  LOD: 0.024 nM
[47]
  LOD: 0.077 nM
[48]
  LOD: 0.026 nM
